According to patent US20180072816A1:

Biological target: human CXCR4 (human) (UniProt P61073)
Experiment: cell-based or functional assay

human CXCR4 (human), sequence (P61073 whole entry): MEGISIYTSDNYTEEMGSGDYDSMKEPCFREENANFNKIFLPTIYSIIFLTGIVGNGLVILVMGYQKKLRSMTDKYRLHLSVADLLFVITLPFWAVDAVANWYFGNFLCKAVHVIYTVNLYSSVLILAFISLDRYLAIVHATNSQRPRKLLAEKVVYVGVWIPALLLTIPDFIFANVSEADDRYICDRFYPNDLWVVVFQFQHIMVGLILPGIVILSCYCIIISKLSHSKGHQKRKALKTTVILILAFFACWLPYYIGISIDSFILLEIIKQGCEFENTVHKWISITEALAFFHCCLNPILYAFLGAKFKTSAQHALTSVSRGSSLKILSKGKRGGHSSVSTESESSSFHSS

IC50 (nM) in β-Arrestin BRET assay (Antagonist mode in the presence of 100 nM SDF-1): 64 nM
Substance: anti-CXCR4 MAb 12G5 (antibody)
